Measurements: patent EP4538294A1 (Shandong Simcere Biopharmaceutical Co., Ltd., dated 2025)

T1: human BCMA on Flp-inCHO-human BCMA cells (human, UniProt Q02223 1-184)
T1 construct: whole, on cells
T1 sequence (looked up): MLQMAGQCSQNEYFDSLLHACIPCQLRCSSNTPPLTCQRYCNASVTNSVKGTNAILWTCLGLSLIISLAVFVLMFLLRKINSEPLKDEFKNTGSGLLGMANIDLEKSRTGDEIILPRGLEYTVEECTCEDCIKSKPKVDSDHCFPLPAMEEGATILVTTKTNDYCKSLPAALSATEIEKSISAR


How the values were obtained:
[1] = target: T2, monkey CD3 on activated monkey PBMC (monkey); assay: FACS, activated monkey PBMC
T2 construct: whole, on cells
T2 sequence (Q95LI5 22-198): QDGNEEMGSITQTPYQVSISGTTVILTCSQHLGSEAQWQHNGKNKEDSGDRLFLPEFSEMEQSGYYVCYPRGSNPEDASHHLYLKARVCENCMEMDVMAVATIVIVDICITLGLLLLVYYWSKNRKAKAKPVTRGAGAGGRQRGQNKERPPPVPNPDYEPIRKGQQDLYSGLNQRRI

[2] = target: T1, human BCMA on Flp-inCHO-human BCMA cells; assay: FACS, Flp-inCHO-human BCMA cells
[3] = target: T3, human GPRC5D on CHOK1-human GPRC5D cells (human, UniProt Q9NZD1 1-345); assay: FACS, CHOK1-human GPRC5D cells
T3 construct: whole, on cells
T3 sequence (Q9NZD1 whole entry): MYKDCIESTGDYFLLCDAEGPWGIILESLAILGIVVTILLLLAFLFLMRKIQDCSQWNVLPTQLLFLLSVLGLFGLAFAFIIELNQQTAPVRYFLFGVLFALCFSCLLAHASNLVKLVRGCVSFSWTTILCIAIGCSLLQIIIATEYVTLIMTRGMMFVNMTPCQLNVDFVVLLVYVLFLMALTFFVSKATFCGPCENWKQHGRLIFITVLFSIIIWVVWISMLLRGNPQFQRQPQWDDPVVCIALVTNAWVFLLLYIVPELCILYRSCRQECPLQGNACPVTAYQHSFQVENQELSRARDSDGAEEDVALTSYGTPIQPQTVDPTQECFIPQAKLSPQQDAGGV

Binder	Maximum mean fluorescence intensity [1]	EC50 [2] [nM]	EC50 [3] [nM]
Tri-17 (trispecific antibody, V domains shown) VHH: EVQLVESGGGLVQPGGSLRLSCSASGFTLDYYMIGWFRQAPGKEREGLSSISPADGSTYYADSVKGRFTISRDSSKNTVYLQMNSLRAEDTAVYYCAAGNEATISWGFGPWEYDYWGQGTMVTVSS VH 1: EVQLVQSGAEVKKPGSSVKVSCKASGYTFTSYGISWVRQAPGQGLEWMGEIYPRSGNTYYNEKFKGRVTLTADKSTSTAYMELSSLRSEDTAVYYCARGRAYGRNYPMDYWGQGTTVTVSS VL 1: EIVLTQSPATLSLSPGERATLSCRASQSIGTSIHWYQQKPGQSPRLLIKYASESISGIPARFSGSGSGTDFTLTISSLEPEDFAVYYCQQSNSWPYTFGGGTKVEIK VH 2: EVQLVESGGGVVQPGRSLRLSCAASGFTFTDYYMSWVRQAPGKGLEWVAMSRNKAKGHTIEYSSSVKGRFTISRDNSKNTLYLQMNSLRAEDTAVYYCARDTYESYDGYFDVWGQGTTVTVSS VL 2: DIVMTQSPDSLAVSLGERATINCKSSQSLFNSRSRKNYLAWYQQKPGQTPKLLIYWASIRESGVPDRFSGSGSGTDFTLTISSLQAEDVAVYYCKQSYYLYTFGQGTKLEIK	3280	2.97	0.69
Tri-66 (trispecific antibody, V domains shown) VHH: EVQLVESGGGLVQPGGSLRLSCAASESISSIHIMAWYRQAPGKQRELVAGIRNDGSTVYVDSVKGRFTISRDNAKNSLYLQMNSLRAEDTAVYYCNADQGFGSYSEWERRSRWGQGTTVTVSS VH 1: EVQLVQSGAEVKKPGASVKVSCKTSGYIFTNFGITWVRQAPGQRLEWMGENYPRRINTYYNEKFKGRVTITADKSASTAYMELSSLRSEDTAVYYCSRKDIFGLSYALDYWGQGTTVTVSS VL 1: DIQMTQSPSSLSASVGDRVTITCKASQNVGTNVAWYQHKPGKSPKALIYSASYQYSGVPSRFSGSGSGTDFTLTISSLQPEDVATYICQQYKNYPYTFGGGTKVEIK VH 2: EVQLVESGGGVVQPGRSLRLSCAASGFTFTDYYMSWVRQAPGKGLEWVAMSRNKAKGHTIEYSSSVKGRFTISRDNSKNTLYLQMNSLRAEDTAVYYCARDTYESYDGYFDVWGQGTTVTVSS VL 2: DIVMTQSPDSLAVSLGERATINCKSSQSLFNSRSRKNYLAWYQQKPGQTPKLLIYWASIRESGVPDRFSGSGSGTDFTLTISSLQAEDVAVYYCKQSYYLYTFGQGTKLEIK	345	1.09	1.53
Tri-64 (trispecific antibody, V domains shown) VHH: EVQLVESGGGLVQPGGSLRLSCAASESISSIHIMAWYRQAPGKQRELVAGIRNDGSTVYVDSVKGRFTISRDNAKNSLYLQMNSLRAEDTAVYYCNADQGFGSYSEWERRSRWGQGTTVTVSS VH 1: EVQLVQSGAEVKKPGSSVKVSCKASGYTFTSYGISWVRQAPGQGLEWMGEIYPRSGNTYYNEKFKGRVTLTADKSTSTAYMELSSLRSEDTAVYYCARGRAYGRNYPMDYWGQGTTVTVSS VL 1: EIVLTQSPATLSLSPGERATLSCRASQSIGTSIHWYQQKPGQSPRLLIKYASESISGIPARFSGSGSGTDFTLTISSLEPEDFAVYYCQQSNSWPYTFGGGTKVEIK VH 2: EVQLVESGGGVVQPGRSLRLSCAASGFTFTDYYMSWVRQAPGKGLEWVAMSRNKAKGHTIEYSSSVKGRFTISRDNSKNTLYLQMNSLRAEDTAVYYCARDTYESYDGYFDVWGQGTTVTVSS VL 2: DIVMTQSPDSLAVSLGERATINCKSSQSLFNSRSRKNYLAWYQQKPGQTPKLLIYWASIRESGVPDRFSGSGSGTDFTLTISSLQAEDVAVYYCKQSYYLYTFGQGTKLEIK	348	1.08	3.63
Tri-46 (trispecific antibody, V domains shown) VHH: EVQLVESGGGLVQPGGSLRLSCAASESISSIHIMAWYRQAPGKQRELVAGIRNDGSTVYVDSVKGRFTISRDNAKNSLYLQMNSLRAEDTAVYYCNADQGFGSYSEWERRSRWGQGTTVTVSS VH 1: EVQLVQSGAEVKKPGSSVKVSCKASGYTFTSYGISWVRQAPGQGLEWMGEIYPRSGNTYYNEKFKGRVTLTADKSTSTAYMELSSLRSEDTAVYYCARGRAYGRNYPMDYWGQGTTVTVSS VL 1: EIVLTQSPATLSLSPGERATLSCRASQSIGTSIHWYQQKPGQSPRLLIKYASESISGIPARFSGSGSGTDFTLTISSLEPEDFAVYYCQQSNSWPYTFGGGTKVEIK VH 2: EVQLVESGGGVVQPGRSLRLSCAASGFTFTDYYMSWVRQAPGKGLEWVAMSRNKAKGHTIEYSSSVKGRFTISRDNSKNTLYLQMNSLRAEDTAVYYCARDTYESYDGYFDVWGQGTTVTVSS VL 2: DIVMTQSPDSLAVSLGERATINCKSSQSLFNSRSRKNYLAWYQQKPGQTPKLLIYWASIRESGVPDRFSGSGSGTDFTLTISSLQAEDVAVYYCKQSYYLYTFGQGTKLEIK	416	5.19	2.36
Tri-63 (trispecific antibody, V domains shown) VHH: EVQLVESGGGLVQPGGSLRLSCAASESISSIHIMAWYRQAPGKQRELVAGIRNDGSTVYVDSVKGRFTISRDNAKNSLYLQMNSLRAEDTAVYYCNADQGFGSYSEWERRSRWGQGTTVTVSS VH 1: EVQLVQSGAEVKKPGSSVKVSCKASGYTFTSYGISWVRQAPGQGLEWMGEIYPRSGNTYYNEKFKGRVTLTADKSTSTAYMELSSLRSEDTAVYYCARGRAYGRNYPMDYWGQGTTVTVSS VL 1: EIVLTQSPATLSLSPGERATLSCRASQSIGTSIHWYQQKPGQSPRLLIKYASESISGIPARFSGSGSGTDFTLTISSLEPEDFAVYYCQQSNSWPYTFGGGTKVEIK VH 2: EVQLVESGGGVVQPGRSLRLSCAASGFTFTDYYMSWVRQAPGKGLEWVAMSRNKAKGHTIEYSSSVKGRFTISRDNSKNTLYLQMNSLRAEDTAVYYCARDTYESYDGYFDVWGQGTTVTVSS VL 2: DIVMTQSPDSLAVSLGERATINCKSSQSLFNSRSRKNYLAWYQQKPGQTPKLLIYWASIRESGVPDRFSGSGSGTDFTLTISSLQAEDVAVYYCKQSYYLYTFGQGTKLEIK	434	2.1	3.8
Tri-65 (trispecific antibody, V domains shown) VHH: EVQLVESGGGLVQPGGSLRLSCAASESISSIHIMAWYRQAPGKQRELVAGIRNDGSTVYVDSVKGRFTISRDNAKNSLYLQMNSLRAEDTAVYYCNADQGFGSYSEWERRSRWGQGTTVTVSS VH 1: EVQLVQSGAEVKKPGASVKVSCKTSGYIFTNFGITWVRQAPGQRLEWMGENYPRRINTYYNEKFKGRVTITADKSASTAYMELSSLRSEDTAVYYCSRKDIFGLSYALDYWGQGTTVTVSS VL 1: DIQMTQSPSSLSASVGDRVTITCKASQNVGTNVAWYQHKPGKSPKALIYSASYQYSGVPSRFSGSGSGTDFTLTISSLQPEDVATYICQQYKNYPYTFGGGTKVEIK VH 2: EVQLVESGGGVVQPGRSLRLSCAASGFTFTDYYMSWVRQAPGKGLEWVAMSRNKAKGHTIEYSSSVKGRFTISRDNSKNTLYLQMNSLRAEDTAVYYCARDTYESYDGYFDVWGQGTTVTVSS VL 2: DIVMTQSPDSLAVSLGERATINCKSSQSLFNSRSRKNYLAWYQQKPGQTPKLLIYWASIRESGVPDRFSGSGSGTDFTLTISSLQAEDVAVYYCKQSYYLYTFGQGTKLEIK	377	2.54	1.66
Tri-38 (trispecific antibody, V domains shown) VHH: EVQLVESGGGLVQPGGSLRLSCSASGFTLDYYMIGWFRQAPGKEREGLSSISPADGSTYYADSVKGRFTISRDSSKNTVYLQMNSLRAEDTAVYYCAAGNEATISWGFGPWEYDYWGQGTMVTVSS VH 1: EVQLVQSGAEVKKPGSSVKVSCKASGYTFTSYGISWVRQAPGQGLEWMGEIYPRSGNTYYNEKFKGRVTLTADKSTSTAYMELSSLRSEDTAVYYCARGRAYGRNYPMDYWGQGTTVTVSS VL 1: EIVLTQSPATLSLSPGERATLSCRASQSIGTSIHWYQQKPGQSPRLLIKYASESISGIPARFSGSGSGTDFTLTISSLEPEDFAVYYCQQSNSWPYTFGGGTKVEIK VH 2: EVQLVESGGGVVQPGRSLRLSCAASGFTFTDYYMSWVRQAPGKGLEWVAMSRNKAKGHTIEYSSSVKGRFTISRDNSKNTLYLQMNSLRAEDTAVYYCARDTYESYDGYFDVWGQGTTVTVSS VL 2: DIVMTQSPDSLAVSLGERATINCKSSQSLFNSRSRKNYLAWYQQKPGQTPKLLIYWASIRESGVPDRFSGSGSGTDFTLTISSLQAEDVAVYYCKQSYYLYTFGQGTKLEIK	1440	4.43	2.06
Tri-56 (trispecific antibody, V domains shown) VHH: EVQLVESGGGLVQPGGSLRLSCAASESISSIHIMAWYRQAPGKQRELVAGIRNDGSTVYVDSVKGRFTISRDNAKNSLYLQMNSLRAEDTAVYYCNADQGFGSYSEWERRSRWGQGTTVTVSS VH 1: EVQLVQSGAEVKKPGSSVKVSCKASGYTFTSYGISWVRQAPGQGLEWMGEIYPRSGNTYYNEKFKGRVTLTADKSTSTAYMELSSLRSEDTAVYYCARGRAYGRNYPMDYWGQGTTVTVSS VL 1: EIVLTQSPATLSLSPGERATLSCRASQSIGTSIHWYQQKPGQSPRLLIKYASESISGIPARFSGSGSGTDFTLTISSLEPEDFAVYYCQQSNSWPYTFGGGTKVEIK VH 2: EVQLVESGGGVVQPGRSLRLSCAASGFTFTDYYMSWVRQAPGKGLEWVAMSRNKAKGHTIEYSSSVKGRFTISRDNSKNTLYLQMNSLRAEDTAVYYCARDTYESYDGYFDVWGQGTTVTVSS VL 2: DIVMTQSPDSLAVSLGERATINCKSSQSLFNSRSRKNYLAWYQQKPGQTPKLLIYWASIRESGVPDRFSGSGSGTDFTLTISSLQAEDVAVYYCKQSYYLYTFGQGTKLEIK	575	1.3	0.38
Tri-52 (trispecific antibody, V domains shown) VHH: EVQLVESGGGLVQPGGSLRLSCAASESISSIHIMAWYRQAPGKQRELVAGIRNDGSTVYVDSVKGRFTISRDNAKNSLYLQMNSLRAEDTAVYYCNADQGFGSYSEWERRSRWGQGTTVTVSS VH 1: EVQLVQSGAEVKKPGSSVKVSCKASGYTFTSYGISWVRQAPGQGLEWMGEIYPRSGNTYYNEKFKGRVTLTADKSTSTAYMELSSLRSEDTAVYYCARGRAYGRNYPMDYWGQGTTVTVSS VL 1: EIVLTQSPATLSLSPGERATLSCRASQSIGTSIHWYQQKPGQSPRLLIKYASESISGIPARFSGSGSGTDFTLTISSLEPEDFAVYYCQQSNSWPYTFGGGTKVEIK VH 2: EVQLVESGGGVVQPGRSLRLSCAASGFTFTDYYMSWVRQAPGKGLEWVAMSRNKAKGHTIEYSSSVKGRFTISRDNSKNTLYLQMNSLRAEDTAVYYCARDTYESYDGYFDVWGQGTTVTVSS VL 2: DIVMTQSPDSLAVSLGERATINCKSSQSLFNSRSRKNYLAWYQQKPGQTPKLLIYWASIRESGVPDRFSGSGSGTDFTLTISSLQAEDVAVYYCKQSYYLYTFGQGTKLEIK	693	1.88	2.97
